Laboratory results taken from paper PMC12288454, “Functional consequences of genetic variations in DgoR, a GntR/FadR family transcriptional repressor of D-galactonate metabolism in Escherichia coli” (Journal of Bacteriology, 2025).
Residue numbers refer to the chain shown, from its start.

Tests used:
DgoR A152E = molecular target: T1, DgoR A152E (Escherichia coli BW, UniProt P31460 1-229, A152E); test: EMSA; no effector; apparent Kd, Hill fit; 10 nM DNA, 50 mM Tris pH 8.5, 10 mM MgCl2, 265 mM NaCl, 1 mM PMSF, 12% glycerol, 2 mM DTT, 1 ug herring sperm DNA per 20 uL, 27 C 30 min; effector pre-incubation 37 C 20 min; 8% native PAGE 0.5x TBE; conditions: protein: recombinant; tags: C-terminal 6xHis; chain copies: 2; label: 5'-Cy5 on strand 1; blunt
T1 sequence: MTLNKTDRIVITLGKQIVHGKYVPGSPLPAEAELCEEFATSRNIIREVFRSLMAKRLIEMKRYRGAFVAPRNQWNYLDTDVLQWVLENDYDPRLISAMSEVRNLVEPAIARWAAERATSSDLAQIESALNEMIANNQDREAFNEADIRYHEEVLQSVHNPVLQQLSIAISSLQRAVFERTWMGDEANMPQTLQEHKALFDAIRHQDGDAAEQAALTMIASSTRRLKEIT

DgoR R71C = molecular target: T2, DgoR R71C (Escherichia coli BW, UniProt P31460 1-229, R71C); test: as above; conditions: protein: recombinant; tags: C-terminal 6xHis; chain copies: 2; label: 5'-Cy5 on strand 1; blunt
T2 sequence: T1 sequence with R71C, E152A

B1: dgo promoter probe GA149/GA150 (dsDNA)
DNA 1: GTGATCTAAATTGTAGTACAACAATATAAGTTTGTACTACATTACACGCACG
DNA 2: CGTGCGTGTAATGTAGTACAAACTTATATTGTTGTACTACAATTTAGATCAC
With B1 the Kd (DgoR A152E) was 1.95 ± 0.09 µM and the Kd (DgoR R71C) was 0.57 ± 0.016 µM.
